Patent US20190016812A1
Substitutions are numbered along the chain they refer to.

B1: SC113.172 (antibody, V domains shown)
VH: QGHLQQSGAELMKPGASVKISCKATGYTFSSYWIEWVKQRPGHGLEWIGEILPGSGSTHYNEKFKGKATFTADTSSNTAYMQLISLTSEDSAVYYCARRDAMDYWGQGTSVTVSS
VL: DIVMTQSPSSLTVTPGEKVTMSCKSSQSLLTSGNQKNYLTWYQQQPGQPPKLLIYWASTRESGVPDRFTGSGSGTDFTLTISSVQAEDLAVYYCQNDYSYPYTFGGGTKLEIK
B2: SC113.187 (antibody, V domains shown)
VH: QVQLQQSGAELAKPGASVKMSCKASGYTFTSYWMYWVKQRPGQGLEWIGYINPSTGYTEYNQKFKDKATLTADKSSSTAYMQLNSLTSEDSAVYYCARSGYYGSSSLAYWGQGTLVTVSA
VL: NIVLTQSPASLAVSLGQRATISCRASESVDSYGNSFMHWYQQKPGQPPKLLIYLASNLESGVPARFSGSGSRTDFTLTIDPVEADDAATYYCQQNNEDPWTFGGGTKLEIK
B3: SC113.119 (antibody, V domains shown)
VH: QVQLQQSGTELARPGASVRLSCKASGYTFTSYGLSWVKQRTGQGLEWIGEIFPGSGNSNYNENFKGKATLTADKSSSTAYMQVSSLSSEDSVVYFCARGGFDFWGQGTSLTVSS
VL: DIQMTQSPSSLSASLGERVSLTCRASQEITGYLSWLQQKPDGTIKRLIYAASTLDSGVPKRFSGSRSGSDYSLTISSLESEDFADYYCLQYARYPPTFGGGTKLEIK
B4: SC113.118 (antibody, V domains shown)
VH: B3 VH with R19K, V83L, S87T, E89D, F103Y, S109T
VL: B3 VL with T30S, Y32F
B5: SC113.190 (antibody, V domains shown)
VH: QVQLQQPGAELVKPGASVKLSCKASGYTFTTYYMYWVKQRPGQGLEWIGGINPSNGDTDFNEKFKSKATLTVDKSSSTVYMQLSSLTPEDSAVYFCTSAGYTSWFAYWGQGTLVTVSA
VL: QIVLTQSPALMSASPGEKVTMTCSASSSVSYMNWYQQKPRSSPKPWIYLTSHLASGVPARFSGSGSGTSYSLTISSMEAEDAATYYCQQWSSKPPTFGSGTKLEIK

What follows are binders tested against human TNFSF9 (R&D Systems; #2295-4L-025/CF) (human) (UniProt P41273) (assay: MSD ELISA: TNFSF9 + 1 ug/mL antibody, binding to coated TNFRSF9).
human TNFSF9 (R&D Systems; #2295-4L-025/CF) (human), sequence (P41273 71-254 limits assumed): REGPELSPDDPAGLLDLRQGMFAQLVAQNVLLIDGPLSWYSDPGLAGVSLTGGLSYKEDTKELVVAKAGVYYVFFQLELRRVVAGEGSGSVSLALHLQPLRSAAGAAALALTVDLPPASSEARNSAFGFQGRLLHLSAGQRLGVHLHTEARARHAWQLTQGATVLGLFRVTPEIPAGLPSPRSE
In the case of B1, the % inhibition of ligand receptor interaction is reported as -3%. Binder B2 has a % inhibition of ligand receptor interaction of -2%. Binder B3 has a % inhibition of ligand receptor interaction of -8%. Binder B4 has a % inhibition of ligand receptor interaction of 3%. With B5 the % inhibition of ligand receptor interaction was 8%.
